B1: SMG-9 (natural protein)
chain: MSESGHSQPGLYGIERRRRWKEPGSGGPQNLSGPGGRERDYIAPWERERRDASEETSTSVMQKTPIILSKPPAERSKQPPPPTAPAAPPAPAPLEKPIVLMKPREEGKGPVAVTGASTPEGTAPPPPAAPAPPKGEKEGQRPTQPVYQIQNRGMGTAAPAAMDPVVGQAKLLPPERMKHSIKLVDDQMNWCDSAIEYLLDQTDVLVVGVLGLQGTGKSMVMSLLSANTPEEDQRTYVFRAQSAEMKERGGNQTSGIDFFITQERIVFLDTQPILSPSILDHLINNDRKLPPEYNLPHTYVEMQSLQIAAFLFTVCHVVIVVQDWFTDLSLYRFLQTAEMVKPSTPSPSHESSSSSGSDEGTEYYPHLVFLQNKARREDFCPRKLRQMHLMIDQLMAHSHLRYKGTLSMLQCNVFPGLPPDFLDSEVNLFLVPFMDSEAESENPPRAGPGSSPLFSLLPGYRGHPSFQSLVSKLRSQVMSMARPQLSHTILTEKNWFHYAARIWDGVRKSSALAEYSRLLA
B2: UPF2 (121–1227) (domain or fragment)
chain: MKEKEESIQLHQEAWERHHLRKELRSKNQNAPDSRPEENFFSRLDSSLKKNTAFVKKLKTITEQQRDSLSHDFNGLNLSKYIAEAVASIVEAKLKISDVNCAVHLCSLFHQRYADFAPSLLQVWKKHFEARKEEKTPNITKLRTDLRFIAELTIVGIFTDKEGLSLIYEQLKNIINADRESHTHVSVVISFCRHCGDDIAGLVPRKVKSAAEKFNLSFPPSEIISPEKQQPFQNLLKEYFTSLTKHLKRDHRELQNTERQNRRILHSKGELSEDRHKQYEEFAMSYQKLLANSQSLADLLDENMPDLPQDKPTPEEHGPGIDIFTPGKPGEYDLEGGIWEDEDARNFYENLIDLKAFVPAILFKDNEKSCQNKESNKDDTKEAKESKENKEVSSPDDLELELENLEINDDTLELEGGDEAEDLTKKLLDEQEQEDEEASTGSHLKLIVDAFLQQLPNCVNRDLIDKAAMDFCMNMNTKANRKKLVRALFIVPRQRLDLLPFYARLVATLHPCMSDVAEDLCSMLRGDFRFHVRKKDQINIETKNKTVRFIGELTKFKMFTKNDTLHCLKMLLSDFSHHHIEMACTLLETCGRFLFRSPESHLRTSVLLEQMMRKKQAMHLDARYVTMVENAYYYCNPPPAEKTVKKKRPPLQEYVRKLLYKDLSKVTTEKVLRQMRKLPWQDQEVKDYVICCMINIWNVKYNSIHCVANLLAGLVLYQEDVGIHVVDGVLEDIRLGMEVNQPKFNQRRISSAKFLGELYNYRMVESAVIFRTLYSFTSFGVNPDGSPSSLDPPEHLFRIRLVCTILDTCGQYFDRGSSKRKLDCFLVYFQRYVWWKKSLEVWTKDHPFPIDIDYMISDTLELLRPKIKLCNSLEESIRQVQDLEREFLIKLGLVNDKDSKDSMTEGENLEEDEEEEEGGAETEEQSGNESEVNEPEEEEGSDNDDDEGEEEEEENTDYLTDSNKENETDEENTEVMIKGGGLKHVPCVEDEDFIQALDKMMLENLQQRSGESVKVHQLDVAIPLHLKSQLRKGPPLGGGEGEAESADTMPFVMLTRKGNKQQFKILNVPMSSQLAANHWNQQQAEQEERMRMKKLTLDINERQEQED
B3: SMG-8 (natural protein)
chain: MAGPVSLRDLLMGASAWMGSESPGGSPTEGGGSAAGGPEPPWREDEICVVGIFGKTALRLNSEKFSLVNTVCDRQVFPLFRHQDPGDPGPGIRTEAGAVGEAGGAEDPGAAAGGSVRGSGAVAEGNRTEAGSQDYSLLQAYYSQESKVLYLLLTSICDNSQLLRACRALQSGEAGGGLSLPHAEAHEFWKHQEKLQCLSLLYLFSVCHILLLVHPTCSFDITYDRVFRALDGLRQKVLPLLKTAIKDCPVGKDWKLNCRPCPPRLLFLFQLNGALKVEPPRNQDPAHPDKPKKHSPKRRLQHALEDQIYRIFRKSRVLTNQSINCLFTVPANQAFVYIVPGSQEEDPVGMLLDQLRSHCTVKDPESLLVPAPLSGPRRYQVMRQHSRQQLSFHIDSSSSSSSGQLVDFTLREFLWQHVELVLSKKGFDDSVGRNPQPSHFELPTYQKWISAASKLYEVAIDGKEEDLGSPTGELTSKILSSIKVLEGFLDIDTKFSENRCQKALPMAHSAYQSNLPHNYTMTVHKNQLAQALRVYSQHARGPAFHKYAMQLHEDCYKFWSNGHQLCEERSLTDQHCVHKFHSLPKSGEKPEADRNPPVLYHNSRARSTGACNCGRKQAPRDDPFDIKAANYDFYQLLEEKCCGKLDHINFPVFEPSTPDPAPAKNESSPAPPDSDADKLKEKEPQTQGESTSLSLALSLGQSTDSLGTYPADPQAGGDNPEVHGQVEVKTEKRPNFVDRQASTVEYLPGMLHSNCPKGLLPKFSSWSLVKLGPAKSYNFHTGLDQQGFIPGTNYLMPWDIVIRTRAEDEGDLDTNSWPAPNKAIPGKRSAVVMGRGRRRDDIARAFVGFEYEDSRGRRFMCSGPDKVMKVMGSGPKESALKALNSDMPLYILSSSQGRGLKPHYAQLMRLFVVVPDAPLQIILMPQVQPGPPPCPVFYPEKQEITLPPDGLWVLRFPYAYVTERGPCFPPKENVQLMSYKVLRGVLKAVTQ
B4: UPF1, full length (natural protein)
chain: MSVEAYGPSSQTLTFLDTEEAELLGADTQGSEFEFTDFTLPSQTQTPPGGPGGPGGGGAGGPGGAGAGAAAGQLDAQVGPEGILQNGAVDDSVAKTSQLLAELNFEEDEEDTYYTKDLPIHACSYCGIHDPACVVYCNTSKKWFCNGRGNTSGSHIVNHLVRAKCKEVTLHKDGPLGETVLECYNCGCRNVFLLGFIPAKADSVVVLLCRQPCASQSSLKDINWDSSQWQPLIQDRCFLSWLVKIPSEQEQLRARQITAQQINKLEELWKENPSATLEDLEKPGVDEEPQHVLLRYEDAYQYQNIFGPLVKLEADYDKKLKESQTQDNITVRWDLGLNKKRIAYFTLPKTDSGNEDLVIIWLRDMRLMQGDEICLRYKGDLAPLWKGIGHVIKVPDNYGDEIAIELRSSVGAPVEVTHNFQVDFVWKSTSFDRMQSALKTFAVDETSVSGYIYHKLLGHEVEDVIIKCQLPKRFTAQGLPDLNHSQVYAVKTVLQRPLSLIQGPPGTGKTVTSATIVYHLARQGNGPVLVCAPSNIAVDQLTEKIHQTGLKVVRLCAKSREAIDSPVSFLALHNQIRNMDSMPELQKLQQLKDETGELSSADEKRYRALKRTAERELLMNADVICCTCVGAGDPRLAKMQFRSILIDESTQATEPECMVPVVLGAKQLILVGDHCQLGPVVMCKKAAKAGLSQSLFERLVVLGIRPIRLQVQYRMHPALSAFPSNIFYEGSLQNGVTAADRVKKGFDFQWPQPDKPMFFYVTQGQEEIASSGTSYLNRTEAANVEKITTKLLKAGAKPDQIGIITPYEGQRSYLVQYMQFSGSLHTKLYQEVEIASVDAFQGREKDFIILSCVRANEHQGIGFLNDPRRLNVALTRARYGVIIVGNPKALSKQPLWNHLLNYYKEQKVLVEGPLNNLRESLMQFSKPRKLVNTINPGARFMTTAMYDAREAIIPGSVYDRSSQGRPSSMYFQTHDQIGMISAGPSHVAAMNIPIPFNLVMPPMPPPGYFGQANGPAAGRGTPKGKTGRGGRQKNRFGLPGPSQTNLPNSQASQDVASQPFSQGALTQGYISMSQPSQMSQPGLSQPELSQDSYLGDEFKSQIDVALSQDSTYQGERAYQHGGVTGLSQY

Key:
[1] = biological target: T1, SMG-1, full length, SBP-tagged (human, UniProt Q96Q15 1-3661); assay: cross-linking
T1 sequence (Q96Q15 whole entry): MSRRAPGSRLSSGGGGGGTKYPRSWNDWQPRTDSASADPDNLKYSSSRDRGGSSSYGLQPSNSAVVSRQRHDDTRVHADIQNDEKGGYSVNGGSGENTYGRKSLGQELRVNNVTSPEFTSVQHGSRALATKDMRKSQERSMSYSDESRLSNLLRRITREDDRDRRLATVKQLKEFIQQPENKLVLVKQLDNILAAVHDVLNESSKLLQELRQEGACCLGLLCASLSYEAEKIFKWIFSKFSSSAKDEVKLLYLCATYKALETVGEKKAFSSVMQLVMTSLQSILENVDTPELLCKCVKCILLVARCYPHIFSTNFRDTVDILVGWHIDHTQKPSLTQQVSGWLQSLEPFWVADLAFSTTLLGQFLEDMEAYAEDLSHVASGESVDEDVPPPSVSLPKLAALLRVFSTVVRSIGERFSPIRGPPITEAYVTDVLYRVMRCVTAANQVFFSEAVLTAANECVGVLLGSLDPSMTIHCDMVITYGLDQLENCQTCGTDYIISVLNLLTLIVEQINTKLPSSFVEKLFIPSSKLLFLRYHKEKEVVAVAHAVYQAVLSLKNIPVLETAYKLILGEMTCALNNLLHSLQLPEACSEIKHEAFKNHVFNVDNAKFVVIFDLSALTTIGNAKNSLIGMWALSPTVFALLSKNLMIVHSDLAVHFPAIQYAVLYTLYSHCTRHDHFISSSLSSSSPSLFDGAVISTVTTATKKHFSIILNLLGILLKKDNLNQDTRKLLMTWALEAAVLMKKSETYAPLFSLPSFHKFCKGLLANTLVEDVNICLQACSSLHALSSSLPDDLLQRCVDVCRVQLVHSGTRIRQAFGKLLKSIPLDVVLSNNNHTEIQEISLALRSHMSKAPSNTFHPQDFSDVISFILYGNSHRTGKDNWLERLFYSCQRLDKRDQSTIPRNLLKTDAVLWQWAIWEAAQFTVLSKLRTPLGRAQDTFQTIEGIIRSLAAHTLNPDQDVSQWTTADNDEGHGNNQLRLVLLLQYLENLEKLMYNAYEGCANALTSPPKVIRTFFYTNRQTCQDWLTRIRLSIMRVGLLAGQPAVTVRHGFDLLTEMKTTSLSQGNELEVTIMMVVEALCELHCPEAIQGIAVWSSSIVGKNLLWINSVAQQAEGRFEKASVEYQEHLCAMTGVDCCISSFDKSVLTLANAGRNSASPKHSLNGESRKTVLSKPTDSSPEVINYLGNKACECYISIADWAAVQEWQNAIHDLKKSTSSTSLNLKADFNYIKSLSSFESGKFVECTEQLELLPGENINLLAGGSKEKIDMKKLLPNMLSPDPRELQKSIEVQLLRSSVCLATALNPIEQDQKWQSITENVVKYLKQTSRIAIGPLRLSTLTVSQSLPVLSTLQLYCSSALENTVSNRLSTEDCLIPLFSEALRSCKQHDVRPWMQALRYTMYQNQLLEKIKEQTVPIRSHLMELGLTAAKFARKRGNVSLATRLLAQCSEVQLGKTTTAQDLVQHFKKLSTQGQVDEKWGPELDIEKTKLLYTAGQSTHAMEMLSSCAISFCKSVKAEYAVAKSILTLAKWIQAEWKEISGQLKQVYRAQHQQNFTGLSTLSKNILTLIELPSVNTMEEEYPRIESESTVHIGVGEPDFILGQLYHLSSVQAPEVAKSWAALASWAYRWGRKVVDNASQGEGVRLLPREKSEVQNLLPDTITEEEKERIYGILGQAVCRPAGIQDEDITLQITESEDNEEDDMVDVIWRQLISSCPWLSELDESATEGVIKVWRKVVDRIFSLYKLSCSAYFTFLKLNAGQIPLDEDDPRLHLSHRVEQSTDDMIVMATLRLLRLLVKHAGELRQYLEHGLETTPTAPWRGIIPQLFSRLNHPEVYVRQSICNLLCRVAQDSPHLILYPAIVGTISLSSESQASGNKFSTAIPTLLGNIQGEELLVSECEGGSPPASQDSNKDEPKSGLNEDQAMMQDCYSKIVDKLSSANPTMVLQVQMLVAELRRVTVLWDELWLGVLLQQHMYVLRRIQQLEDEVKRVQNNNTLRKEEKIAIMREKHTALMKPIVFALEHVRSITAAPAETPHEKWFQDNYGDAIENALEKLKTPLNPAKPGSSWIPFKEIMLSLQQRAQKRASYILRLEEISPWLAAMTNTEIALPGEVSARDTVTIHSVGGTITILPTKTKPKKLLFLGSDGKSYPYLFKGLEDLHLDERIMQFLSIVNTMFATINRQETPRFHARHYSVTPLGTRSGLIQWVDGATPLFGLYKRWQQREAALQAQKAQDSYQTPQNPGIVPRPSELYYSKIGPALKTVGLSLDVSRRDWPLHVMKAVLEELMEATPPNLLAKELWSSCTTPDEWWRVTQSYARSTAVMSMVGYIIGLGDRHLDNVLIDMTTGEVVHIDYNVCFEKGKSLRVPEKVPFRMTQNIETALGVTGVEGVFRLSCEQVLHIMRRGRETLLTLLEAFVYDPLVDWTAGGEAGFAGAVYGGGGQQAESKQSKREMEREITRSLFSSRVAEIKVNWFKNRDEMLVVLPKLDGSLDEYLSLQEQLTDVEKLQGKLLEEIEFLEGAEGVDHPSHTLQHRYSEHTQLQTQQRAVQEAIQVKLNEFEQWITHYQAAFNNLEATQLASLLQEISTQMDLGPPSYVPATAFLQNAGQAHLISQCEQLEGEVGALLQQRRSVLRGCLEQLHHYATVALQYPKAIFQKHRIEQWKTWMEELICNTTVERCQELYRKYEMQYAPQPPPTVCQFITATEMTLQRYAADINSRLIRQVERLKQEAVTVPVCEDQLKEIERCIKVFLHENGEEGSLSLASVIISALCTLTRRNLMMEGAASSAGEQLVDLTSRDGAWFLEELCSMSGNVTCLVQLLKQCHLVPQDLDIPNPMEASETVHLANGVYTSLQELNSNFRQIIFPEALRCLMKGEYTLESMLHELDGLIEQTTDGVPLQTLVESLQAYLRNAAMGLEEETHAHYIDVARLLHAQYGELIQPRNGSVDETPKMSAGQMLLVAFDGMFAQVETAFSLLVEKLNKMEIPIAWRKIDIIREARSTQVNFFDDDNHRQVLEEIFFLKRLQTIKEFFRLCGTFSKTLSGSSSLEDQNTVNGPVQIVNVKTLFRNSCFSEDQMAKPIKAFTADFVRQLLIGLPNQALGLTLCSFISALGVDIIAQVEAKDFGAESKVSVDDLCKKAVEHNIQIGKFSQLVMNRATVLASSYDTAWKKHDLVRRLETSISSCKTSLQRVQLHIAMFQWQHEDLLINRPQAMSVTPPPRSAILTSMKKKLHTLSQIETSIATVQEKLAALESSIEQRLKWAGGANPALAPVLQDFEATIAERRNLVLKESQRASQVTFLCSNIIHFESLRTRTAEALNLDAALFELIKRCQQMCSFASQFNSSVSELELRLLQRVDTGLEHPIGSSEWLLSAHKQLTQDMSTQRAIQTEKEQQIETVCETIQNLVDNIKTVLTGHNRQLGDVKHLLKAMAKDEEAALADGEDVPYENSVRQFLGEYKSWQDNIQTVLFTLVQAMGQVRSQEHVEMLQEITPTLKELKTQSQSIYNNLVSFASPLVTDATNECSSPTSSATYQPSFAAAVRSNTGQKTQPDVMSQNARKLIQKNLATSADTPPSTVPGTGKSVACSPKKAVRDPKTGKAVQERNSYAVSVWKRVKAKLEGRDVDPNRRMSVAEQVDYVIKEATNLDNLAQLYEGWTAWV

UPF1, full length [2] = biological target: B4; assay: cross-linking
SMG-8 = biological target: B3; assay: cross-linking
UPF1, full length [3] = biological target: B4; assay: SEC
SMG-1–8–9 complex = SMG-1–8–9 complex (human | , UniProt Q96Q15;Q8ND04;Q9H0W8); assay: negative-stain electron microscopy
Sequence of SMG-1–8–9 complex (Q96Q15 whole entry, one chain of several): as the sequence (Q96Q15 whole entry) above

[4] = biological target: T1, SMG-1, full length, SBP-tagged; assay: cryo-EM structure

B1: binds [1]; binds (UPF1, full length [2]); binds (SMG-8).

B2: binds (UPF1, full length [3]).

B3: binds [1].

B4: binds (SMG-1–8–9 complex); binds [4].

Reference: PMC4551919 (Nucleic Acids Research, 2015)
